Measurements from article PMC11615309 (Nature Communications, 2024).

Biological target: T1, 6xHis-tagged FAT1 cadherin #28-33 (3024-3789 aa) (UniProt Q14517 3024-3789)
T1 sequence: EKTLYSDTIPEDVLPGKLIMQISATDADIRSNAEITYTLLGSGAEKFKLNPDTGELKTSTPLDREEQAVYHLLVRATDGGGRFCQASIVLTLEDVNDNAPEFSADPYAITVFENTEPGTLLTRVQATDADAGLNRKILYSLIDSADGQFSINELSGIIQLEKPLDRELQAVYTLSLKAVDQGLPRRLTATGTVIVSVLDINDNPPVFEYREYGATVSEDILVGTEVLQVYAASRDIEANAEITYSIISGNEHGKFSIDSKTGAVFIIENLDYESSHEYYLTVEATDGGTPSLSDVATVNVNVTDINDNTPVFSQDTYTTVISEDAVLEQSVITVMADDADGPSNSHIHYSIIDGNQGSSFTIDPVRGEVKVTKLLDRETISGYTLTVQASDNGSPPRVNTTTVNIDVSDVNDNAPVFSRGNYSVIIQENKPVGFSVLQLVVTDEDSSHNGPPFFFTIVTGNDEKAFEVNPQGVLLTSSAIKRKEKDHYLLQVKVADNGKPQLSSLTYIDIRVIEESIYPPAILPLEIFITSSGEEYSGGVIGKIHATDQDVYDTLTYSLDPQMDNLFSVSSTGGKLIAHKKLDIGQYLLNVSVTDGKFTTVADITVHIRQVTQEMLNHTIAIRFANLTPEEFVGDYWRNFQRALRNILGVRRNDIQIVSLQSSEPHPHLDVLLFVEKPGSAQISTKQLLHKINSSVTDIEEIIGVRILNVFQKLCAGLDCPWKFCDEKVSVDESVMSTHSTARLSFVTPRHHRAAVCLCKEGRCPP
Assay: pull-down

B1: GST-OLFM4 (OLFM4 without signal peptide) (domain or fragment)
chain: not shown
- binding result: binds
